Test results taken from US20260258113A1, “BETA GLOBIN MIMETIC PEPTIDES AND THEIR USE” (THE UNITED STATES OF AMERICA, AS REPRESENTED BY THE …, priority 2022, published 2026).

Target: T1, alpha globin (Homo sapiens, UniProt P69905)
T1 construct: The equilibrium dissociation constant of full-length alpha globin and the eNOS oxygenase domain had not previously been quantified
Assay: Protein-protein binding affinity by biolayer interferometry
Conditions: binding to immobilized biotinylated alpha globin
Procedure: FIGS. 2A-2D: A) Beta globin, eNOS, and cytochrome B5 reductase 3 (Cyb5R3) co-immunoprecipitate with alpha globin in lysates of perfused human omental arteries. P1, P2, and P3 each represent an independent replicate consisting of pooled flash-frozen arteries from two donors (n=30 arteries from each donor). P1 and P2 were incubated with an alpha globin antibody to immunoprecipitate alpha globin and bound protein partners. P3 was incubated instead with an IgG antibody as a negative control. Western blot was performed on the immunoprecipitate with antibodies for alpha globin, beta globin, Cyb5R3, or eNOS. Myc-eNOS purified from a cell overexpression lysate served as a positive control for eNOS. RBC lysate served as a positive control for alpha and beta globin. B) The red blood cell protein Band 3/SLC4A1 is not detected in protein lysates from pooled human omental arteries. Prior to immunoprecipitation, whole protein lysate was loaded into a gel and probed by Western Blot for SLC4A1 and alpha globin. […] C-D) Biolayer interferometry sensorgram traces of the binding of eNOS or AHSP to alpha globin showing association and dissociation; raw datasets shown in black, fitting curves shown. […]
Protein-protein binding affinity assessed by biolayer interferometry: Biolayer interferometry experiments were performed on the automated eight-channel Octet RED96 instrument (ForteBio). […]

T1 sequence (P69905 whole entry, the tested form may be a part): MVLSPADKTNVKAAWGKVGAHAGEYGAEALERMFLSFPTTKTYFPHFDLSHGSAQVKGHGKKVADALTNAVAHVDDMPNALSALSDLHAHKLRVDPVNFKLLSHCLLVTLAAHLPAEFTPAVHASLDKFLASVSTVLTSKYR

B1: eNOSox: recombinant human eNOS oxidase domain (protein)
chain: PKFPRVKNWEVGSITYDTLSAQAQQDGPCTPRRCLGSLVFPRKLQGRPSPGPPAPEQLLSQARDFINQYYSSIKRSGSQAHEQRLQEVEAEVAATGTYQLRESELVFGAKQAWRNAPRCVGRIQWGKLQVFDARDCRSAQEMFTYICNHIKYATNRGNLRSAITVFPQRCPGRGDFRIWNSQLVRYAGYRQQDGSVRGDPANVEITELCIQHGWTPGNGRFDVLPLLLQAPDDPPELFLLPPELVLEVPLEHPTLEWFAALGLRWYALPAVSNMLLEIGGLEFPAAPFSGWYMSTEIGTRNLCDPHRYNILEDVAVCMDLDTRTTSSLWKDKAAVEINVAVLHSYQLAKVTIVDHHAATASFMKHLENEQKARGGCPADWAWIVPPISGSLTPVFHQEMVNYFLSPAFRYQPDPWKGSAAKGTGITR
  Kd: 1310 nM
